B1: membrane-bound IdeS (IdeS-tm) (protein)
chain 1: DSFSANQEIRYSEVTPYHVTSVWTKGVTPPAKFTQGEDVFHAPYVANQGWYDITKTFNGKDDLLCGAATAGNMLHWWFDQNKEKIEAYLKKHPDKQKIMFGDQELLDVRKVINTKGDQTNSELFNYFRDKAFPGLSARRIGVMPDLVLDMFINGYYLNVYKTQTTDVNRTYQEKDRRGGIFDAVFTRGDQSKLLTSRHDFKEKNLKEISDLIKKELTEGKALGLSHTYANVRINHVINLWGADFDSNGNLKAIYVTDSDSNASIGMKKYFVGVNSAGKVAISAKEIKEDNIGAQVLGLFTLSTGQDSWNQTN
chain 2: not shown
B2: secreted IdeS (IdeS-sec) (protein)
chain: B1 chain 1

Target: human polyclonal IgG

Protein	cleavage of IgG, SDS-PAGE with Coomassie stain and anti-human Fc blot	cleavage ELISA
B1	Cleaved Ig appeared within 5 min and increased over time	
B2		IdeS-sec efficiently cleaved human polyclonal IgG at different time points
